Positions count from the first letter of the chain named. Numbers in names are those of the source.
B1: C3E-3007 scFv (humanized OKT3 scFv) (scFv)
scFv: QVQLVQSGAESKKPGASVKVSCKASGYTFTRYTMHWVRQAPGQGLEWMGYINPSRGYTNYNQKFKDRVTITADKSTSTAYMELSSLRSEDTAVYYCARYYDDHYCLDYWGQGTLVTVSSGGGGSGGGGSGGGGSQIQMTQSPSSLAVSLGERATITCSASSSVSYMNWYQQKPGKAPKRWIYDTSKLASGVPDRFSGSGSGTDFTLTISSLQAEDVATYYCQQWSSNPFTFGQGTKVEIKRGASAAAGSGGDYKDDDDKGAAAHHHHHH
B2: C3E-7035 (humanized anti-CD3 scFv) (scFv)
scFv: GEVQLVESGGGLVQPGGSLRLSCAASGVTFNYYGMSWIRQAPGKGLEWVASITNSGGRIYYPDSVKGRFTISRENTQKTLYLQMNSLRAEDTAVYYCTLDGRDGWVAYWGQGTLVTVSSGGGGSGGGGSGGGGSMAQAVLTQPSSVSGVPGQRVTISCKRNTGNIGSNYVNWYQQLPGTAPKLLIYRDDKRPSGVPDRFSGSKSGTSASLAITGFQAEDEADYYCQSYSSGFIFGGGTKLTVLGAAAGAGGDYKDDDDKGAAAHHHHHH
B3: C3E-7036 (humanized anti-CD3 scFv) (scFv)
scFv: GEVQLVESGGGLVQPGGSLRLSCAASGVTFNYYGMSWIRQAPGKGLEWVASITNSGGRIYYPDSVKGRFTISRENTQKTLYLQMNSLRAEDTAVYYCTLDGRDGWVAYWGQGTLVTVSSGGGGSGGGGSGGGGSNFMLTQPSSVSGVPGQRVTISCTGNTGNIGSNYVNWYQQLPGTAPKLLIYRDDKRPSGVPDRFSGSKSGTSASLAITGFQAEDEADYYCQSYSSGFIFGGGTKLTVLGAAAGAGGDYKDDDDKGAAAHHHHHH
B4: C3E-7078 (CDR modified humanized anti-CD3 scFv) (scFv)
scFv: GEVQLVESGGGLVQPGGSLRLSCAASGVTFNYYGMSWIRQAPGKGLEWVASITRSGGRIYYPDSVKGRFTISRENTQKTLYLQMNSLRAEDTAVYYCTLDGRDGWVAYWGQGTLVTVSSGGGGSGGGGSGGGGSNFMLTQPHSVSESPGKTVTISCKRNTGNIGSNYVNWYQQHEGSSPTTIIYRDDKRPDGVSDRFSGSIDRSSKSASLTISNLKTEDEADYFCQSYSSGFIFGGGTKLTVLGAAAGAGGDYKDDDDKGAAAHHHHHH
notes: the change is already in the entry
B5: C3E-7079 (CDR modified humanized anti-CD3 scFv) (scFv)
scFv: B4 scFv with R54S
notes: as for B4
B6: C3E-7086 (CDR modified humanized anti-CD3 scFv) (scFv)
scFv: B4 scFv with D186G
notes: C3E-7078 with glycine for aspartic acid at position 52 of the VL; the change is already in the entry
B7: C3E-7087 (CDR modified humanized anti-CD3 scFv) (scFv)
scFv: B4 scFv with D186Q
notes: C3E-7078 with glutamine for aspartic acid at position 52 of the VL; the change is already in the entry
B8: C3E-7088 (CDR modified humanized anti-CD3 scFv) (scFv)
scFv: B4 scFv with D186N
notes: C3E-7078 with asparagine for aspartic acid at position 52 of the VL; the change is already in the entry
B9: C3E-7089 (CDR modified humanized anti-CD3 scFv) (scFv)
scFv: B4 scFv with D186S
notes: C3E-7078 with serine for aspartic acid at position 52 of the VL; the change is already in the entry
B10: C3E-7090 (CDR modified humanized anti-CD3 scFv) (scFv)
scFv: B4 scFv with D186A
notes: C3E-7078 with alanine for aspartic acid at position 52 of the VL; the change is already in the entry
B11: C3E-7091 (CDR modified humanized anti-CD3 scFv) (scFv)
scFv: B4 scFv with R54S, D186G
notes: C3E-7079 with glycine for aspartic acid at position 52 of the VL; the change is already in the entry
B12: C3E-7092 (CDR modified humanized anti-CD3 scFv) (scFv)
scFv: B4 scFv with R54S, D186Q
notes: C3E-7079 with glutamine for aspartic acid at position 52 of the VL; the change is already in the entry
B13: C3E-7093 (CDR modified humanized anti-CD3 scFv) (scFv)
scFv: B4 scFv with R54S, D186N
notes: C3E-7079 with asparagine for aspartic acid at position 52 of the VL; the change is already in the entry
B14: C3E-7094 (CDR modified humanized anti-CD3 scFv) (scFv)
scFv: B4 scFv with R54S, D186S
notes: C3E-7079 with serine for aspartic acid at position 52 of the VL; the change is already in the entry
B15: C3E-7095 (CDR modified humanized anti-CD3 scFv) (scFv)
scFv: B4 scFv with R54S, D186A
notes: C3E-7079 with alanine for aspartic acid at position 52 of the VL; the change is already in the entry
B16: C3E-7085 (CDR modified humanized anti-CD3 scFv) (scFv)
scFv: B3 scFv with N54R
notes: C3E-7036 with arginine for asparagine at position 53 of the VH; the change is already in the entry

The binders below were run against T1, human CD3 on human PBMC (human, UniProt P07766 23-207) (assay: flow cytometry on human PBMC, Penta-His Alexa Fluor 488 detection (rMFI)).
T1 construct: Native CD3 complex on T cells in PBMC; the other chains of the complex are native; also called human CD3 (PBMC)
Protocol: Commercially available human PBMC (Cellular Technology Ltd. (CTL)) was adjusted to an appropriate concentration with PBS containing 5% FBS. LIVE/DEAD Fixable Near-IR Dead Cell Stain Kit (Thermo Fisher Scientific Inc.) and an anti-CD19 antibody (Beckman Coulter Inc.) were added to the cells, which were then left standing at 4° C. for 30 minutes. The cells were washed twice with PBS containing 5% FBS, then adjusted to a concentration of 1×10⁶ cells/mL with PBS containing 5% FBS, added at a concentration of 100 μL/well to a 96-well U-bottomed microplate, and centrifuged to remove a supernatant. […] The cells were washed twice with PBS containing 5% FBS. Then, Penta-His Alexa Fluor 488 (Qiagen N.V.) diluted with PBS containing 5% FBS was added at a concentration of 30 μL/well, and the plate was left standing at 4° C. for 30 minutes. The cells were washed twice with PBS containing 5% FBS and then resuspended in PBS containing 5% FBS, followed by detection using a flow cytometer (FACSCanto™ II; Becton, Dickinson and Company). The data was analyzed using Flowjo (Tree Star Inc.). The mean fluorescence intensity (MFI) of Alexa Fluor 488 in a fraction free of dead cells and CD19-positive cells was calculated. The MFI value of the scFv-unsupplemented sample was subtracted from the MFI value of the scFv-supplemented sample to calculate a relative value of MFI (rMFI).
B1: binds. B2: binds. B3: binds.

The binders below were run against T2, cynomolgus monkey CD3 on cynomolgus monkey PBMC or T cell line HSC-F (cynomolgus monkey, UniProt Q95LI5 22-198) (assay: flow cytometry on cynomolgus monkey PBMC).
T2 construct: whole, on cells; Native CD3 complex on monkey T cells; also called cynomolgus monkey CD3 (PBMC); cynomolgus monkey CD3 antigen
T2 sequence (Q95LI5 22-198): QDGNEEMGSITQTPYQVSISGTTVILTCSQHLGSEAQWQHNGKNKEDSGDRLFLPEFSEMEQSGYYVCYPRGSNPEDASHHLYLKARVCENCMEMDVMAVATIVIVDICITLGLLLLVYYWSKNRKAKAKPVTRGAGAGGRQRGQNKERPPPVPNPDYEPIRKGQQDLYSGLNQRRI
B4: binds. B5: binds. B6: binds. B7: binds. B8: binds. B9: binds. B10: binds. B11: binds. B12: binds. B13: binds. B14: binds. B15: binds. B2: binds. B3: binds. B16: binds.

The binders below were run against T1, human CD3 on human PBMC (assay: flow cytometry on human PBMC).
B4: binds. B5: binds. B6: binds. B7: binds. B8: binds. B9: binds. B10: binds. B11: binds. B12: binds. B13: binds. B14: binds. B15: binds. B16: binds.

What follows are binders tested against T3, CD3 immobilized on a sensor chip (Example 7)-1-2) (assay: SPR (BIAcore T-200), CD3 immobilized, scFv injected at five concentrations; concentration giving 1/2 Rmax).
T3 construct: the text says only 'CD3 immobilized on a sensor chip'; also called human CD3
Protocol: Five different concentrations of the scFv were injected into CD3 immobilized on a sensor chip. Rmax was estimated from the resulting response, and the antibody concentration that reached 1/2 thereof was defined as the dissociation constant of the scFv for CD3.
Binder B1 has a Kd of 400 nM. B2 gave a Kd of 22 nM. Work on B3 yielded a Kd of 25 nM.
